Test results as given in article PMC2573054 (The Journal of Biological Chemistry, 2008).

B1: c-myc epitope-tagged human PLCγ2 (PLCγ2-222, wild type) (enzyme)
chain: MSTTVNVDSLAEYEKSQIKRALELGTVMTVFSFRKSTPERRTVQVIMETRQVAWSKTADKIEGFLDIMEIKEIRPGKNSKDFERAKAVRQKEDCCFTILYGTQFVLSTLSLAADSKEDAVNWLSGLKILHQEAMNASTPTIIESWLRKQIYSVDQTRRNSISLRELKTILPLINFKVSSAKFLKDKFVEIGAHKDELSFEQFHLFYKKLMFEQQKSILDEFKKDSSVFILGNTDRPDASAVYLHDFQRFLIHEQQEHWAQDLNKVRERMTKFIDDTMRETAEPFLFVDEFLTYLFSRENSIWDEKYDAVDMQDMNNPLSHYWISSSHNTYLTGDQLRSESSPEAYIRCLRMGCRCIELDCWDGPDGKPVIYHGWTRTTKIKFDDVVQAIKDHAFVTSSFPVILSIEEHCSVEQQRHMAKAFKEVFGDLLLTKPTEASADQLPSPSQLREKIIIKHKKLGPRGDVDVNMEDKKDEHKQQGELYMWDSIDQKWTRHYCAIADAKLSFSDDIEQTMEEEVPQDIPPTELHFGEKWFHKKVEKRTSAEKLLQEYCMETGGKDGTFLVRESETFPNDYTLSFWRSGRVQHCRIRSTMEGGTLKYYLTDNLTFSSIYALIQHYRETHLRCAEFELRLTDPVPNPNPHESKPWYYDSLSRGEAEDMLMRIPRDGAFLIRKREGSDSYAITFRARGKVKHCRINRDGRHFVLGTSAYFESLVELVSYYEKHSLYRKMRLRYPVTPELLERYNMERDINSLYDVSRMYVDPSEINPSMPQRTVKALYDYKAKRSDELSFCRGALIHNVSKEPGGWWKGDYGTRIQQYFPSNYVEDISTADFEELEKQIIEDNPLGSLCRGILDLNTYNVVKAPQGKNQKSFVFILEPKQQGDPPVEFATDRVEELFEWFQSIREITWKIDTKENNMKYWEKNQSIAIELSDLVVYCKPTSKTKDNLENPDFREIRSFVETKADSIIRQKPVDLLKYNQKGLTRVYPKGQRVDSSNYDPFRLWLCGSQMVALNFQTADKYMQMNHALFSLNGRTGYVLQPESMRTEKYDPMPPESQRKILMTLTVKVLGARHLPKLGRSIACPFVEVEICGAEYDNNKFKTTVVNDNGLSPIWAPTQEKVTFEIYDPNLAFLRFVVYEEDMFSDPNFLAHATYPIKAVKSGFRSVPLKNGYSEDIELASLLVFCEMRPVLESEEELYSSCRQLRRRQEELNNQLFLYDTHQNLRNANRDALVKEFSVNENQLQLYQEKCNKRLREKRVSNSKFYS
B2: PLCγ2 spPH (aa 471-913, Δ516-841), wild type (domain or fragment)
chain: GGSGGSKKDEHKQQGELYMWDSIDQKWTRHYCAIADAKLSFSDDIEQTMEEDNPLGSLCRGILDLNTYNVVKAPQGKNQKSFVFILEPKQQGDPPVEFATDRVEELFEWFQSIREITWKIDTK
B3: PLCγ1-122 (PLCγ1 with both portions of the split PH domain of PLCγ2), c-myc epitope-tagged (enzyme)
chain: MAGAASPCANGCGPGAPSDAEVLHLCRSLEVGTVMTLFYSKKSQRPERKTFQVKLETRQITWSRGADKIEGAIDIREIKEIRPGKTSRDFDRYQEDPAFRPDQSHCFVILYGMEFRLKTLSLQATSEDEVNMWIKGLTWLMEDTLQAPTPLQIERWLRKQFYSVDRNREDRISAKDLKNMLSQVNYRVPNMRFLRERLTDLEQRSGDITYGQFAQLYRSLMYSAQKTMDLPFLEASTLRAGERPELCRVSLPEFQQFLLDYQGELWAVDRLQVQEFMLSFLRDPLREIEEPYFFLDEFVTFLFSKENSVWNSQLDAVCPDTMNNPLSHYWISSSHNTYLTGDQFSSESSLEAYARCLRMGCRCIELDCWDGPDGMPVIYHGHTLTTKIKFSDVLHTIKEHAFVASEYPVILSIEDHCSIAQQRNMAQYFKKVLGDTLLTKPVEISADGLPSPNQLKRKILIKHKKLAEGSAYEEVPTSMMYMEDKKDEHKQQGELYMWDSIDQKWTRHYCAIADAKLSFSDDIEQTMGNEDEEEPKEVSSSTELHSNEKWFHGKLGAGRDGRHIAERLLTEYCIETGAPDGSFLVRESETFVGDYTLSFWRNGKVQHCRIHSRQDAGTPKFFLTDNLVFDSLYDLITHYQQVPLRCNEFEMRLSEPVPQTNAHESKEWYHASLTRAQAEHMLMRVPRDGAFLVRKRNEPNSYAISFRAEGKIKHCRVQQEGQTVMLGNSEFDSLVDLISYYEKHPLYRKMKLRYPINEEALEKIGTAEPDYGALYEGRNPGFYVEANPMPTFKCAVKALFDYKAQREDELTFIKSAIIQNVEKQEGGWWRGDYGGKKQLWFPSNYVEEMVNPVALEPEREHLDENSPLGDLCRGILDLNTYNVVKAPQGKNQKSFVFILEPKQQGDPPVEFATDRVEELFEWFQSIREITWKIDTKETEGKIMERRKKIALELSELVVYCRPVPFDEEKIGTERACYRDMSSFPETKAEKYVNKAKGKKFLQYNRLQLSRIYPKGQRLDSSNYDPLPMWICGSQLVALNFQTPDKPMQMNQALFMTGRHCGYVLQPSTMRDEAFDPFDKSSLRGLEPCAISIEVLGARHLPKNGRGIVCPFVEIEVAGAEYDSTKQKTEFVVDNGLNPVWPAKPFHFQISNPEFAFLRFVVYEEDMFSDQNFLAQATFPVKGLKTGYRAVPLKNNYSEDLELASLLIKIDIFPAKQENGDLSPFSGTSLRERGSDASGQLFHGRAREGSFESRYQQPFEDFRISQEHLADHFDSRERRAPRRTRVNGDNRL

Each binder was assayed against His-Rac2 (hexahistidine-tagged Rac2^G12V, aa 2-177) (human, UniProt P15153 2-177, G12V) (assay: SPR).

Row | Binder | Kd [µM] | koff [s⁻¹] | kon [M⁻¹ s⁻¹]
1 | B1 | 3.9 | 0.0031 | 806
2 | B2 | 17 | 0.0016 | 93.8
3 | B3 | 5.8 | 0.0025 | 434
